Source: PMC5383425, “Differential CLE peptide perception by plant receptors implicated from structural and functional analyses of TDIF-TDR interactions” (PLoS ONE, 2017)
Entries after “also recorded” stand apart in the source; their conditions may differ. Square brackets hold non-standard residues; d marks the D form. Ends that are not written are not given here. Peptide text beside a SMILES is read from it. Hyp = O=C(O)[C@@H]1C[C@@H](O)CN1

Columns and labels:
[1] = target: T1, ecdTDR (extracellular domain of TDR, residues 30–642), wild type (Arabidopsis thaliana, UniProt Q9FII5); assay: ITC of synthetic TDIF/CLE peptides with wild-type ecdTDR; details: for Kd (dissociation constant) / Binding to TDR in words (relative to wild type peptide): ITC, 25°C, pH 5.5; for Kd (dissociation constant): 10 mM sodium citrate, 100 mM NaCl, 0.5–1 mM peptide titrated into 10–40 μM ecdTDR, one set of binding sites, Kd = 1/Ka; for Binding to TDR in words (relative to wild type peptide): wild-type ecdTDR
T1 sequence (Q9FII5 30-642): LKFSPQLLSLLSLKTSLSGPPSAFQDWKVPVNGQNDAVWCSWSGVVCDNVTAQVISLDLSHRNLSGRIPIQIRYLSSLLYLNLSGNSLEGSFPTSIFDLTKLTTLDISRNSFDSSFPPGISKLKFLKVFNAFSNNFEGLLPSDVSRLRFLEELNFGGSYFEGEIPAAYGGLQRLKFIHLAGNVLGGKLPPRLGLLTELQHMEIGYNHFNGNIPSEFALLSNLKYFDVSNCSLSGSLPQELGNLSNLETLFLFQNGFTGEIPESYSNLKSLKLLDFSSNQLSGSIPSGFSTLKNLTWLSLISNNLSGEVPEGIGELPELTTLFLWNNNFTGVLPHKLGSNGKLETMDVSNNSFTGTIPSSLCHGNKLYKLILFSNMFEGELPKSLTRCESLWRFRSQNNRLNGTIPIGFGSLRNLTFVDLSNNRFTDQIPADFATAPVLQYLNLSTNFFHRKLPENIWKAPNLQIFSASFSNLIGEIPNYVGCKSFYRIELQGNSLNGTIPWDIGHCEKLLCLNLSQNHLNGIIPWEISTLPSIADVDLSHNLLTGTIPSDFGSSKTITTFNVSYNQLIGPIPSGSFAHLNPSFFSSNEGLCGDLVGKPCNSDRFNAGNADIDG
Source text: To elucidate the molecular basis of TDR-TDIF interaction, we expressed the extracellular domain of TDR (residues 30–642) from Arabidopsis thaliana using Bac-to-Bac baculovirus-mediated insect cell expression system (Invitrogen). DNA fragment encoding the A. thaliana TDR gene (residues 30–642) were amplified by polymerase chain reaction (PCR) from an A. thaliana Expressed Sequence Tag (EST) clone as template. The amplified DNA fragment was then cloned into a modified pFastBac1 vector with the secretion signal sequence of baculovirus gp67 glycoprotein fused to its 5’ end and an engineered 6-histidine tag at the carboxyl terminus of the TDR protein. The construct plasmid was used to transform DH10Bac (Invitrogen) competent cells to generated recombinant bacmid DNA. Then the bacmid DNA was used to transfect sf9 insect cells to generate recombinant virus which was then amplified three times to passage 3. We used 20 ml passage 3 virus to infect each liter of High Five cells with a cell density of 1.5 x 10^6 in SF900 II SFM medium (Invitrogen). The recombinant protein was expressed in High Five cells at 27°C. […] The TDR mutants were generated using a PCR-based site-directed mutagenesis kit (Invitrogen), and the mutant TDR proteins were expressed and purified as the same procedure of the wild-type TDR (30–642) protein.
ITC experiments were performed on a MicroCal Auto-iTC200 instrument. […] Experiments were carried out at 25°C in a buffer containing 10 mM sodium citrate and 100 mM NaCl at pH 5.5. The data was analyzed using ORIGIN software. The association constant (Ka), enthalpy change (ΔH), and the stoichiometry (N) were calculated by fitting the thermograms to one set of binding sites. The association constant (Ka) was calculated by fitting the thermograms to one binding site.

[2] = test system: tracheary element differentiation; details: reported in vivo study; cited from earlier work
Source text: There are two major anchoring sites on the TDIF peptide that are separated by Hyp4-S5-G6-Hyp7 (Fig 2). […] The side chain of H1 dips into a binding pocket of TDR formed by residues S162, G186, S187, Y188 and G210. In addition, hydrogen bonding interactions create major interactiv ... || Three TDIF residues N8, I10 and N12 form a C-terminal anchoring site (Fig 2C). Alanine substitutions of these residues N8A, I10A and N12A radically weaken their binding with TDR receptor. δ-NH2 group of N8 forms hydrogen bonds with the hydroxyl group of S305; side chain of I10 forms hydrophobic interaction with W353; δ-NH2 group of N12 forms hydrogen bonds with the hydroxyl group of S377 and carbonyl group of N12 forms a hydrogen bond with the side chain of R421.

[3] = target: ecdTDR S305A/W353A/R421A/R423A (Arabidopsis thaliana, UniProt Q9FII5, R421A/R423A/S305A/W353A); details: ITC, wild type TDIF, 25°C, pH 5.5
ecdTDR S305A/W353A/R421A/R423A, sequence (Q9FII5 30-642 S305A/W353A/R421A/R423A): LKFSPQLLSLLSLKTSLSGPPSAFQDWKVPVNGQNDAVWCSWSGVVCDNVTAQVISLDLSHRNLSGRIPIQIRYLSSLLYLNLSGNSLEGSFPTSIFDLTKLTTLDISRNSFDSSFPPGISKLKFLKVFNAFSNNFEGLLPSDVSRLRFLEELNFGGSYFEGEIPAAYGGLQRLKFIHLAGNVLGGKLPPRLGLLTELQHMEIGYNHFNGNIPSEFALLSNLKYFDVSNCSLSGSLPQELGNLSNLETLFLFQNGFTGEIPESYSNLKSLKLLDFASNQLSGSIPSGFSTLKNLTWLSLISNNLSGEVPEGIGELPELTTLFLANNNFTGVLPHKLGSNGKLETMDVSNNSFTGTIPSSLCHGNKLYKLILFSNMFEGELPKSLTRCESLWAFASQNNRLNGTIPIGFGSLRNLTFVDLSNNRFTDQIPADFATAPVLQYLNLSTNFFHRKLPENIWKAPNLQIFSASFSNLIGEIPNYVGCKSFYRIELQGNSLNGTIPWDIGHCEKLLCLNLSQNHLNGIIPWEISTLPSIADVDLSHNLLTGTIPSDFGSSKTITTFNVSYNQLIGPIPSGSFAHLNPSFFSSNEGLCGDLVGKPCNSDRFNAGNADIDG
Source text: (§1) To elucidate the molecular basis of TDR-TDIF interaction, we expressed the extracellular domain of TDR (residues 30–642) from Arabidopsis thaliana using Bac-to-Bac baculovirus-mediated insect cell expression system (Invitrogen). DNA fragment encoding the A. thaliana TDR gene (residues 30–642) were amplified by polymerase chain reaction (PCR) from an A. thaliana Expressed Sequence Tag (EST) clone as template. The amplified DNA fragment was then cloned into a modified pFastBac1 vector with the secretion signal sequence of baculovirus gp67 glycoprotein fused to its 5’ end and an engineered 6-histidine tag at the carboxyl terminus of the TDR protein. The construct plasmid was used to transform DH10Bac (Invitrogen) competent cells to generated recombinant bacmid DNA. Then the bacmid DNA was used to transfect sf9 insect cells to generate recombinant virus which was then amplified three times to passage 3. […]
(§2) ITC experiments were performed on a MicroCal Auto-iTC200 instrument. […] The data was analyzed using ORIGIN software. The association constant (Ka), enthalpy change (ΔH), and the stoichiometry (N) were calculated by fitting the thermograms to one set of binding sites. The association constant (Ka) was calculated by fitting the thermograms to one binding site.

[4] = target: ecdTDR Y234A/F279A/F281A/S305A/W353A/ R421A/R423A (Arabidopsis thaliana, UniProt Q9FII5, F279A/F281A/R421A/R423A/S305A/W353A/Y234A); details: ITC, wild type TDIF, 25°C, pH 5.5
ecdTDR Y234A/F279A/F281A/S305A/W353A/ R421A/R423A, sequence (Q9FII5 30-642 Y234A/F279A/F281A/S305A/W353A/R421A/R423A): as the sequence (Q9FII5 30-642 S305A/W353A/R421A/R423A) above, with Y205A, F250A, F252A counted along it
Source text: as §1, §2

[5] = target: T2, extracellular domain of A. thaliana TDR (residues 30-642) (Arabidopsis thaliana, UniProt Q9FII5 30-642, N-glycosylated at N111, N356, N378, N471 and N525 (one GlcNAc visible on each in the structures)); assay: ITC; 0.5–1 mM peptide titrated into 10–40 μM ecdTDR; 25°C; 10 mM sodium citrate, 100 mM NaCl, pH 5.5; fitted to one set of binding sites; MicroCal Auto-iTC200; details: both partners purified
T2 construct: TDR/PXY (TDIF RECEPTOR / PHLOEM INTERCALATED WITH XYLEM) of A. thaliana, extracellular domain, residues 30-642; the structure models hold residues 40-625; also called ecdTDR; TDR-ECD; source: High Five insect cells (baculovirus), secreted, purified (Ni-NTA, size-exclusion chromatography)
T2 sequence (looked up): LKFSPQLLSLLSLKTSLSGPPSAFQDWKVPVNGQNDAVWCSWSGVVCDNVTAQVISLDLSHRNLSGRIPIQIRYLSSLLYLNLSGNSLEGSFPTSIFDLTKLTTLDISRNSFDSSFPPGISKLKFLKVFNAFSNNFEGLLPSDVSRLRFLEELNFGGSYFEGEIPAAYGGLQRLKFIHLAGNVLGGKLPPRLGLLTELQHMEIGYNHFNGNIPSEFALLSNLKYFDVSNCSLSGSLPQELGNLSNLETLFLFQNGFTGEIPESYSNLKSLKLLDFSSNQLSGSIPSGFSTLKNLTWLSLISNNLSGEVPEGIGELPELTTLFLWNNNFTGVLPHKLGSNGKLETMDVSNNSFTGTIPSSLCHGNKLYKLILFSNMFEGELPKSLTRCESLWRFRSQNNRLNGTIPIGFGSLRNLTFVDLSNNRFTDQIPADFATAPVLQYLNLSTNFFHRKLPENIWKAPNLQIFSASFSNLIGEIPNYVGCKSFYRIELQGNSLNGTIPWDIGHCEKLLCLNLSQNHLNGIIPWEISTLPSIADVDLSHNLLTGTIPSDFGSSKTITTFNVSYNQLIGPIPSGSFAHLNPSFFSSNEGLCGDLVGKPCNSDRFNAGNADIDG

[6] = target: T3, extracellular domain of A. thaliana TDR (residues 30-642), Q9FII5; assay: ITC
T3 chain: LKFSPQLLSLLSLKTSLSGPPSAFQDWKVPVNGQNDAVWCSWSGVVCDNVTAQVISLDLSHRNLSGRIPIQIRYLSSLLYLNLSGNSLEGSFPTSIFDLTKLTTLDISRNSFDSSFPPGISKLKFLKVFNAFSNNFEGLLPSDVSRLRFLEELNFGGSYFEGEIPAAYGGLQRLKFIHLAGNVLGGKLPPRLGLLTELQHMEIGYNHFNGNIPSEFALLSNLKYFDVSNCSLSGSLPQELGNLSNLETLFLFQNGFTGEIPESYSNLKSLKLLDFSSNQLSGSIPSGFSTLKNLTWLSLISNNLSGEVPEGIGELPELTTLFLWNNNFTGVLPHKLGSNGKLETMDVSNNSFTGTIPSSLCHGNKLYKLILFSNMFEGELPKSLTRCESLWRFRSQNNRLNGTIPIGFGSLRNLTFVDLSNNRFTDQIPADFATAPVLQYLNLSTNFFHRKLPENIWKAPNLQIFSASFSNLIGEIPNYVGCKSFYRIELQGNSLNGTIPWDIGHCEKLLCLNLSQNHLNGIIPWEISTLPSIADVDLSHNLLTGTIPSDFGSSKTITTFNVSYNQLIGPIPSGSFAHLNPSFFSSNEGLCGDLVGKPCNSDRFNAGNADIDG

[7] = target: T4, extracellular domain of A. thaliana TDR (residues 30-642) (Arabidopsis thaliana, UniProt Q9FII5 30-642, N-glycosylated at N111, N356, N378, N471 and N525 (one GlcNAc visible on each in the structures)); assay: ITC
T4 chain: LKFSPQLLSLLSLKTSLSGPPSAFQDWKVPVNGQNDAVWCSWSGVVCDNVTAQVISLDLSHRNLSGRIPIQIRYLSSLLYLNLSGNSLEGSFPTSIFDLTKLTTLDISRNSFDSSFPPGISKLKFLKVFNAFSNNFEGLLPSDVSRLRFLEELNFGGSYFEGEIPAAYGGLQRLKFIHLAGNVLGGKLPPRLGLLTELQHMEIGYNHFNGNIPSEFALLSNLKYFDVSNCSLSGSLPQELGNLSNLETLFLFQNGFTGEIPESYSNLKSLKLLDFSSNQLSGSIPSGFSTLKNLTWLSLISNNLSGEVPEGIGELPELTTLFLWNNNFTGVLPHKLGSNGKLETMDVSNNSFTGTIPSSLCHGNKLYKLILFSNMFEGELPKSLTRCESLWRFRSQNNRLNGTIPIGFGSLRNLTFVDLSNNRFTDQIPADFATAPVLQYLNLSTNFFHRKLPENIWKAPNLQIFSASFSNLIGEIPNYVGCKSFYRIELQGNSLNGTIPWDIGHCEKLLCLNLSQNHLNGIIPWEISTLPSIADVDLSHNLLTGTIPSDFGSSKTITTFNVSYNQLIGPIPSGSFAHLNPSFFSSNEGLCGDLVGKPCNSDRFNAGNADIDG

## TDIF-H1A/E2A/V3A/N8A/I10A/N12A: TDIF mutant peptide, both anchoring sites mutated (AAAPSGPAPASA; not fully specified (residues 4, 7))
[1]
  Kd (dissociation constant): No binding
  Binding to TDR in words (relative to wild type peptide): no binding

## TDIF-S11A: TDIF mutant peptide, S11A substitution (HEVPSGPNPIAN; not fully specified (residues 4, 7))
[1]
  Binding to TDR in words (relative to wild type peptide): barely affects the binding affinity

## TDIF-P9A: TDIF mutant peptide, P9A (HEV[Hyp]SG[Hyp]NAISN)
[2]
  Effect on inhibition of tracheary element differentiation, in words: significant in effect

## CC[C@H](C)[C@H](NC(=O)[C@@H]1CCCN1C(=O)[C@H](CC(N)=O)NC(=O)[C@@H]1C[C@@H](O)CN1C(=O)CNC(=O)[C@H](CO)NC(=O)[C@@H]1C[C@@H](O)CN1C(=O)[C@@H](NC(=O)[C@H](CCC(=O)O)NC(=O)[C@@H](N)Cc1c[nH]cn1)C(C)C)C(=O)N[C@@H](CO)C(=O)N[C@@H](C)C(=O)O [TDIF-N12A] (H-HEV[Hyp]SG[Hyp]NPISA-OH)
[1]
  Kd: 4.69 ± 0.47 µM

## CLE42: CLE peptide in which the E2 of TDIF has been replaced with glycine (HGVPSGPNPISN) [reference compound]
[1]
  Binding to TDR in words (relative to wild type peptide): does not influence the binding significantly

## CC(C)[C@H](NC(=O)[C@H](CCC(=O)O)NC(=O)[C@@H](N)Cc1c[nH]cn1)C(=O)N1C[C@H](O)C[C@H]1C(=O)N[C@@H](CO)C(=O)NCC(=O)N1C[C@H](O)C[C@H]1C(=O)N[C@@H](C)C(=O)N1CCC[C@H]1C(=O)N[C@@H](C)C(=O)N[C@@H](CO)C(=O)N[C@@H](C)C(=O)O [TDIF-N8A/I10A/N12A] (H-HEV[Hyp]SG[Hyp]APASA-OH)
[1]
  Kd: 11.1 ± 1.84 µM

## TDIF-H1A/E2A/V3A/N12A: TDIF mutant peptide (AAAPSGPNPISA; not fully specified (residues 4, 7))
[1]
  Kd (dissociation constant): No binding
  Binding to TDR in words (relative to wild type peptide): no binding

## CC[C@H](C)[C@H](NC(=O)[C@@H]1CCCN1C(=O)[C@H](CC(N)=O)NC(=O)[C@@H]1C[C@@H](O)CN1C(=O)CNC(=O)[C@H](CO)NC(=O)[C@@H]1C[C@@H](O)CN1C(=O)[C@@H](NC(=O)[C@H](CCC(=O)O)NC(=O)[C@@H](N)Cc1c[nH]cn1)C(C)C)C(=O)N[C@@H](CO)C(=O)N[C@@H](CC(N)=O)C(=O)O [TDIF, Tracheary Element Differentiation Inhibitory Factor] (H-HEV[Hyp]SG[Hyp]NPISN-OH)
[3]
  Kd: no measurable binding
[4]
  Kd: no measurable binding

## CLE46: CLE peptide with E2K, V3H, I10T and S11G substitutions relative to TDIF (HKHPSGPNPTGN) [reference compound]
[1]
  Kd (dissociation constant): No binding
  Binding to TDR in words (relative to wild type peptide): no measurable binding; also recorded: unable to bind TDR

B1: TDIF-N8A/I10A/N12A peptide (peptide)
peptide: HEV[Hyp]SG[Hyp]APASA
notes: TDIF (CLE41/CLE44 peptide) of A. thaliana; numbers count on: the 12-residue peptide
[5]
  Kd: ~11 µM
  fold lower affinity than wild-type TDIF: ~110 fold

## HLVPSGPNPLHN [CLE9 peptide R1H]
[6]; chain shown with the change
  ratio to parent: -46.6
[6]; chain shown with the change, parent: […]
  other: fold change in Kd against wild type TDIF: 2.1
[6]; chain shown with the change;, parent: 10215 ± 6281 nM
  Kd: 0.219 µM

## RLVPSGPNPLHN [CLE9 peptide]
[7]
  Kd: 10.2 µM

B2: CLE42 peptide (peptide)
peptide: HGVPSGPNPISN
notes: CLE42 peptide of A. thaliana; numbers count on: the 12-residue peptide
[5]
  binding result: binds

B3: TDIF peptide with alanine substitution of S5 (peptide)
peptide: HEV[Hyp]AG[Hyp]NPISN
notes: TDIF (CLE41/CLE44 peptide) of A. thaliana; numbers count on: the 12-residue peptide; also called S5 alanine mutant
[5]
  binding result: binds

B4: TDIF-P9A mutant peptide (peptide)
peptide: HEV[Hyp]SG[Hyp]NAISN
notes: as for B1
[5]
  fold decrease in binding against wild-type TDIF: 2 fold

B5: TDIF E2R mutant peptide (peptide)
peptide: HRV[Hyp]SG[Hyp]NPISN
notes: as for B1
[5]
  fold increase in Kd over wild-type TDIF: 5.3 fold

B6: TDIF V3A mutant peptide (peptide)
peptide: HEA[Hyp]SG[Hyp]NPISN
notes: as for B1
[5]
  fold lower affinity than wild-type TDIF: 11.1 fold

B7: TDIF peptide with alanine substitution of Hyp7 (peptide)
peptide: HEV[Hyp]SGANPISN
notes: TDIF (CLE41/CLE44 peptide) of A. thaliana; numbers count on: the 12-residue peptide; also called Hyp7 alanine mutant
[5]
  binding result: binds

B8: TDIF peptide with alanine substitution of Hyp4 (peptide)
peptide: HEVASG[Hyp]NPISN
notes: TDIF (CLE41/CLE44 peptide) of A. thaliana; numbers count on: the 12-residue peptide; also called Hyp4 alanine mutant
[5]
  binding result: binds

B9: TDIF H1A mutant peptide (peptide)
peptide: AEV[Hyp]SG[Hyp]NPISN
notes: as for B1
[5]
  fold lower affinity than wild-type TDIF: ~115 fold

B10: G6A TDIF mutant peptide (peptide)
peptide: HEV[Hyp]SA[Hyp]NPISN
notes: as for B1
[5]
  fold lower affinity than wild-type TDIF: 13.9 fold

B11: G6T TDIF mutant peptide (peptide)
peptide: HEV[Hyp]ST[Hyp]NPISN
notes: as for B1
[5]
  fold lower affinity than wild-type TDIF: 20.1 fold

B12: TDIF E2A mutant peptide (peptide)
peptide: HAV[Hyp]SG[Hyp]NPISN
notes: as for B1
[5]
  fold increase in Kd over wild-type TDIF: 3.2 fold

B13: TDIF S11A mutant peptide (peptide)
peptide: HEV[Hyp]SG[Hyp]NPIAN
notes: as for B1
[5]
  binding result: binds

B14: TDIF-H1R peptide (peptide)
peptide: REV[Hyp]SG[Hyp]NPISN
notes: TDIF (CLE41/CLE44 peptide) of A. thaliana; numbers count on: the 12-residue peptide; also called printed once as 'R1H substitution of TDIF'; source: synthetic peptide
[5]
  fold lower affinity than wild-type TDIF: 3.2 fold
